According to article PMC8812686 (Proceedings of the National Academy of Sciences of the …, 2022):

B1: HCcmL, CcmL with a pentahistidine tag (Histag) inserted between D33 and G34 (natural protein, Thermosynechococcus elongatus BP-1)
chain: MKIARVCGTVTSTQKEDTLTGVKFLVLQYLGEDHHHHHGEFLPDYEVAADTVGAGQDEWVLVSRGSAARHIINGTDKPIDAAVVAIIDTVSRDNYLLYSKRTQY
B2: CcmL, pentameric vertex protein of the β-carboxysome from Thermosynechococcus elongatus BP-1 (natural protein)
chain: MKIARVCGTVTSTQKEDTLTGVKFLVLQYLGEDGEFLPDYEVAADTVGAGQDEWVLVSRGSAARHIINGTDKPIDAAVVAIIDTVSRDNYLLYSKRTQY

Biological target: the molecule itself
Assay: SEC

Protein	stoichiometry N
B1	5
B2	5
